# Measured values reported in patent publication US20030092068A1 (ASAHI KASEI, published 2003).
# Biological target: c-Kit (CD117) on human undifferentiated blood cells (UT-7, M07e, cord blood-derived CD34 positive cells) (human, UniProt P10721 26-976)
# Test: cell-based or functional assay
# Chain of c-Kit (CD117) on human undifferentiated blood cells (UT-7, M07e, cord blood-derived CD34 positive cells) (P10721 26-976): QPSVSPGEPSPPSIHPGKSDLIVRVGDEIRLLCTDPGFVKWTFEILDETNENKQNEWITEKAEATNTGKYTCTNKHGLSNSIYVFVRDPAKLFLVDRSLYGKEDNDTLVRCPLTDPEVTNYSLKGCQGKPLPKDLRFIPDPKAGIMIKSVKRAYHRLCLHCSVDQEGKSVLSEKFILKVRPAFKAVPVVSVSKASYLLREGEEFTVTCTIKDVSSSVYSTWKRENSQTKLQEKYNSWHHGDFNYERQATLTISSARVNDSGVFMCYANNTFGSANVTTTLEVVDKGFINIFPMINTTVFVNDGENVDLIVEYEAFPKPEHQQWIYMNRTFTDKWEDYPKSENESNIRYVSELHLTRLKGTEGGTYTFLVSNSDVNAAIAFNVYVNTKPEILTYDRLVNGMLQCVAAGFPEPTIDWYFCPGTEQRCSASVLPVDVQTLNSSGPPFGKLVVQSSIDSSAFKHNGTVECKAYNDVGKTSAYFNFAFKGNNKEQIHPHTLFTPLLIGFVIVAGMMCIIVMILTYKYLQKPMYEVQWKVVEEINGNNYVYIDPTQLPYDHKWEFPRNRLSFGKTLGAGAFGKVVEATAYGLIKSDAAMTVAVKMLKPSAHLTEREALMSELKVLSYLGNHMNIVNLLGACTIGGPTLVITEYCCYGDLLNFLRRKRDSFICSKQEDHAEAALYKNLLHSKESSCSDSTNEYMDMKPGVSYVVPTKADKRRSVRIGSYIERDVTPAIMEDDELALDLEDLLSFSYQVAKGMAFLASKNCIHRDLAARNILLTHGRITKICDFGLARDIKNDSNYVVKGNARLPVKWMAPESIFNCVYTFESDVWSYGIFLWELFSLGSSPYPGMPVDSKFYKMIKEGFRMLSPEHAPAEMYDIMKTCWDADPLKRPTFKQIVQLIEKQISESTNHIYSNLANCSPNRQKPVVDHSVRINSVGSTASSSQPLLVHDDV
binder,measurement,value
"polypeptide (CARex-mSCF), being CAR extracellular region linked with mouse SCF (other) LSITTPEEMIEKAKGETAYLPCKFTLSPEDQGPLDIEWLISPADNQKVDQVIILYSGDKIYDDYYPDLKGRVHFTSNDLKSGDASINVTNLQLSDIGTYQCKVKKAPGVANKKIHLVVLVKPSGARCYVDGSEEIGSDFKIKCEPKEGSLPLQYEWQKLSDSQKMPTSWLAEMTSSVISVKNASSEYSGTYSCTVRNRVGSDQCLLRLNVVPPSNKAHHHHHHSASASAKEICGNPVTDNVKDITKLVANLPNDYMITLNYVAGMDVLPSHCWLRDMVIQLSLSLTTLLDKFSNISEGLSNYSIIDKLGKIVDDLVLCMEENAPKNIKESPKRPETRSFTPEEFFSIFNRSIDAFKDFMVASDTSDCVLSSTLGPEKDSRVSVTKPFMLPPVA","GFP positive cell ratio, M07e cells, Ax1CAgfp at MOI 100 (adenovirus alone 0.5%)",82%
